Assay results as given in paper doi:10.1101/368720.

Legend:
[1] = target: rabbit skeletal muscle G-actin (rabbit) (UniProt P68135); test: ITC
[2] = target: rabbit skeletal muscle filamentous actin (rabbit) (UniProt P68135); test: co-sedimentation

| Substance | Kd [1] | stoichiometry N (occidiofungin per G-actin) [1] | Kd [2] | stoichiometry N (occidiofungin per actin monomer) [2] | stoichiometry N (phalloidin per actin monomer) [2] |
| --- | --- | --- | --- | --- | --- |
| occidiofungin (native, unmodified) (peptide) | 1 µM | 1 | 1 µM | 24 |  |
| phalloidin (peptide) |  |  | 0.008 µM |  | 0.6 |
